Experimental data: US20190249141A1

Experiments:
[1] = biological target: recombinant murine CD40L (M112-L260) with N-terminal HA tag (murine); experiment: loading of HA-tagged CD40L on anti-HA antibody microbeads; protein in the supernatant (A280) measured before and after incubation
[2] = biological target: CD40 on mouse splenic B cells (mouse) (UniProt P27512); experiment: cell-based or functional assay
Chain of UniProt P27512 (P27512 20-289): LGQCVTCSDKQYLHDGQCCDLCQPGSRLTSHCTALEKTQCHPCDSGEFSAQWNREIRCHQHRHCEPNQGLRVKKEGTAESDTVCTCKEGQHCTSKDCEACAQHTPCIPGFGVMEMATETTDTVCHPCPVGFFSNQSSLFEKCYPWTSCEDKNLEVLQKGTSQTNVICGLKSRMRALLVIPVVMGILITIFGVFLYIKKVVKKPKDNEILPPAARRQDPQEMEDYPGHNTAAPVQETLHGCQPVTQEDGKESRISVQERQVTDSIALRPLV

anti-HA peptide antibody covalently attached to superparamagnetic microbeads (Pierce)
maximum surface density of CD40L on anti-HA microbeads (molecules µm^-2) [1]: 27000

anti-CD40 antibody (clone 1C10, eBioscience)
cell viability on Day 6 of B cells activated by αCD40 [2]: 2 to 5%
